Laboratory results taken from publication PMC4356359, “The structure of bradyzoite-specific enolase from Toxoplasma gondii reveals insights into its dual cytoplasmic and nuclear functions”.

B1: TgMAG1 probe (TTTTCT motif) (dsDNA)
DNA 1: TTTTCTTCTCAAGA
DNA 2: TCTTGAGAAGAAAA
B2: probe B (c-Myc promoter TATA box) (dsDNA)
DNA 1: ATATAAAATCCGTA
DNA 2: TACGGATTTTATAT
B3: probe C (random negative control) (dsDNA)
DNA 1: TTCTCCTGTGTCAT
DNA 2: ATGACACAGGAGAA

Molecular target: T1, TgENO1 (bradyzoite enolase 1) (Toxoplasma gondii, UniProt B9PH47 1-444)
T1 sequence: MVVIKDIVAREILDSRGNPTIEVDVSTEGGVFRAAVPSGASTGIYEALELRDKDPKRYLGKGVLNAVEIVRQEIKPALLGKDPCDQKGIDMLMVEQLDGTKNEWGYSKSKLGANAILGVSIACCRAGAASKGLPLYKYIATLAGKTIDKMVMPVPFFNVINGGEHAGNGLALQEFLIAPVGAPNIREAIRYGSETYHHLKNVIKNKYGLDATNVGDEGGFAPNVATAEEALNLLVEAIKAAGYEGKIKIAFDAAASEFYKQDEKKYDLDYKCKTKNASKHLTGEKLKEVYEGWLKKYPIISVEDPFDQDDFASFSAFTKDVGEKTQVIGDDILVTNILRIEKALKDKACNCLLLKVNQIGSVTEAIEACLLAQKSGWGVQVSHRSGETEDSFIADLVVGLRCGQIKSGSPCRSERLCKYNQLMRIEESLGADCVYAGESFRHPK
Experiment: EMSA; EMSA with Thermo Scientific band-shift kit per manufacturer; buffer, salt, pH and temperature not stated (protein stock 10 mM Tris-HCl pH 8.3, 500 mM NaCl, 5 mM beta-mercaptoethanol)
Details: protein: recombinant; tags: N-terminal His-TEV (pCCK-N'-HisTEV vector)

Row | Binder | binding result
1 | B1 | binds
2 | B2 | no binding
3 | B3 | no binding
